Measurements as given in patent publication US20170362276A1 (published 2017).
Positions of bridges follow the written chain, without caps; N, C: chain ends. Non-standard residues stand in square brackets, D forms with d. No end group written: not given here.

How the values were obtained:
[1] = target: human kappa opioid receptor (human) (UniProt P41145); assay: ratio of Ki at kappa to Ki at mu, radioligand competition
[2] = target: T1, human delta opioid receptor (human, UniProt P41143 1-372); assay: cell-based or functional assay
[3] = target: human kappa opioid receptor (human) (UniProt P41145); assay: radioligand competition, 3H-U69593, membranes of CHO cells expressing cloned human kappa receptor
[4] = target: human mu opioid receptor (human) (UniProt P35372); assay: cell-based or functional assay
[5] = target: human kappa opioid receptor (human) (UniProt P41145); assay: cell-based or functional assay
[6] = target: T1, human delta opioid receptor; assay: ratio of Ki at delta to Ki at mu, radioligand competition
[7] = target: T1, human delta opioid receptor; assay: radioligand competition, 3H-DPDPE, membranes of CHO cells expressing cloned human delta receptor
[8] = target: human mu opioid receptor (human) (UniProt P35372); assay: radioligand competition, 3H-DAMGO, membranes of CHO cells expressing cloned human mu receptor

| Molecule | Selectivity Kappa/Mu [1] | Agonist EC50 (35S-GTPγS assay) [2] [nM] | Selectivity delta/mu (agonist EC50) [2] | Ki [3] [nM] | Agonist EC50 (35S-GTPγS assay) [4] [nM] | efficacy of mu activation (35S-GTPγS) [4] [%] | Agonist EC50 (35S-GTPγS assay) [5] [nM] | Selectivity kappa/mu (agonist EC50) [5] | Selectivity Delta/Mu [6] | Ki [7] [nM] | Ki [8] [nM] | Delta Antagonist IC 50 [2] [nM] |
| --- | --- | --- | --- | --- | --- | --- | --- | --- | --- | --- | --- | --- |
| ck2, Tyr-c[D-Lys-Phe-Phe] (peptide) | 33 | 7 | 44 | 12 | 0.15 | > 90 | 206 | 1370 | 9 | 3 | 0.36 |  |
| ck1, Tyr-c[D-Lys-Trp-Phe] (peptide) | 111 | 138 | 658 | 35 | 0.21 | > 90 | 470 | 2240 | 90 | 28 | 0.32 |  |
| Y[dE]FFK-NH2 (lactam 2-5; N-terminus assumed; SMILES NC(=O)[C@@H]1CCCCNC(=O)CC[C@@H](NC(=O)[C@@H](N)Cc2ccc(O)cc2)C(=O)N[C@@H](Cc2ccccc2)C(=O)N[C@@H](Cc2ccccc2)C(=O)N1) [Compound 2, Tyr-c[D-Glu-Phe-Phe-Lys]-NH2] |  |  |  |  |  |  |  |  |  |  |  | 2750 |
| YPFF-NH2 [endomorphin-2 (Tyr-Pro-Phe-Phe-NH2)] |  |  |  |  |  |  |  |  |  |  |  | 30000 |
| Y[dK]WFE-NH2 (lactam 2-5; N-terminus assumed; SMILES NC(=O)[C@@H]1CCC(=O)NCCCC[C@@H](NC(=O)[C@@H](N)Cc2ccc(O)cc2)C(=O)N[C@@H](Cc2c[nH]c3ccccc23)C(=O)N[C@@H](Cc2ccccc2)C(=O)N1) [Compound 1, Tyr-c[D-Lys-Trp-Phe-Glu]-NH2] |  |  |  |  |  |  |  |  |  |  |  | 105 |
| Y[dK]WFD-NH2 (lactam 2-5; N-terminus assumed; SMILES NC(=O)[C@@H]1CC(=O)NCCCC[C@@H](NC(=O)[C@@H](N)Cc2ccc(O)cc2)C(=O)N[C@@H](Cc2c[nH]c3ccccc23)C(=O)N[C@@H](Cc2ccccc2)C(=O)N1) [Compound 5, Tyr-c[D-Lys-Trp-Phe-Asp]-NH2] |  |  |  |  |  |  |  |  |  |  |  | 557 |
